Substrate in data set [1]: N[C@@H](Cc1c[nH]c2ccccc12)C(=O)O
The data set can be described thus: HPLC end-point assay, Michaelis-Menten fit. It counts as biochemical, Streptomyces sp. RM-5-8. The conditions noted are these: 2 mM DMAPP, 50 mM Tris pH 8.0, 37 °C.

Substrate in data set [2]: N[C@@H](Cc1c[nH]c2ccccc12)C(=O)O
The data set is described as follows: HPLC end-point assay, Michaelis-Menten fit. It counts as biochemical, Micromonospora olivasterospora. The note with it: 2 mM DMAPP, 50 mM Tris pH 8.0, 37 °C.

B1: PriB (Streptomyces sp. RM-5-8) (protein)
chain: MGGPMSGFHSGEALLGDLATGQLTRLCEVAGLTEADTAAYTGVLIESLGTSAGRPLSLPPPSRTFLSDDHTPVEFSLAFLPGRAPHLRVLVEPGCSSGDDLAENGRAGLRAVHTMADRWGFSTEQLDRLEDLFFPSSPEGPLALWCALELRSGGVPGVKVYLNPAANGADRAAETVREALARLGHLQAFDALPRADGFPFLALDLGDWDAPRVKIYLKHLGMSAADAGSLPRMSPAPSREQLEEFFRTAGDLPAPGDPGPTEDTGRLAGRPALTCHSFTETATGRPSGYTLHVPVRDYVRHDGEARDRAVAVLREHDMDSAALDRALAAVSPRPLSDGVGLIAYLALVHQRGRPTRVTVYVSSEAYEVRPPRETVPTRDRARARL
B1: in data set [1], the Michaelis constant (Km) entry is given as “(42.9 ± 6.9) × 10^−2 mM”, the turnover number (kcat) was 0.33 ± 0.0133 s⁻¹ and the kcat/Km was 770 M⁻¹ s⁻¹.

B2: 6DMATSmo (Micromonospora olivasterospora) (protein)
chain: MAGLSVSDHLDGQLARLCEVAGADPVEPRNLLAGLLGPVGPRPLYEPPAWPSGVSDDHTPVEFSIAFNEAEPPTLRILGETLGSPPGPLANLSATRGFLDAQARRAGLSTSRLDSVRDLFATDDPQGDFAMWCSLVFRSSRRPEFKVYLNPEVKGVERSPALVSEALHRLGLGASYRALLDHGVRPGELGRGDRLTFFAVDLHDGPQARVKLYLTHHEAEVWDVTRAASVVDGVDVAEIEEFCVVAGGGTRRFDGRPLVGSYTFTEGADRPVGYSIYVPIRSYVTDDQEARDRVAALLVRYGFDTDGLDRAIAAVTPRPLRDGVGLIAHVSLRLGAPRPGVTVYLSAEAYRVSPPRPRRMPAGRDVSPAPVGRTRP
In the case of B2, in data set [2], the Michaelis-Menten constant (Km) result is “(33.1 ± 2.5) × 10^−2 mM”, the kcat is 0.0917 ± 0.00167 s⁻¹ and the kcat/Km was found to be 277 M⁻¹ s⁻¹.

B3: 6DMATSmo (Micromonospora olivasterospora; H329Y/Y277H) (protein)
chain: MAGLSVSDHLDGQLARLCEVAGADPVEPRNLLAGLLGPVGPRPLYEPPAWPSGVSDDHTPVEFSIAFNEAEPPTLRILGETLGSPPGPLANLSATRGFLDAQARRAGLSTSRLDSVRDLFATDDPQGDFAMWCSLVFRSSRRPEFKVYLNPEVKGVERSPALVSEALHRLGLGASYRALLDHGVRPGELGRGDRLTFFAVDLHDGPQARVKLYLTHHEAEVWDVTRAASVVDGVDVAEIEEFCVVAGGGTRRFDGRPLVGSYTFTEGADRPVGYSIHVPIRSYVTDDQEARDRVAALLVRYGFDTDGLDRAIAAVTPRPLRDGVGLIAYVSLRLGAPRPGVTVYLSAEAYRVSPPRPRRMPAGRDVSPAPVGRTRP
On to B3, for which, in data set [2], the Michaelis-Menten constant (Km) amounted to 1000 ± 100 µM, the turnover number (kcat) was found to be 0.00182 ± 3.33e-05 s⁻¹ and the kcat/Km came to 1.82 M⁻¹ s⁻¹.

B4: 6DMATSmo (Micromonospora olivasterospora; Y277H) (protein)
chain: MAGLSVSDHLDGQLARLCEVAGADPVEPRNLLAGLLGPVGPRPLYEPPAWPSGVSDDHTPVEFSIAFNEAEPPTLRILGETLGSPPGPLANLSATRGFLDAQARRAGLSTSRLDSVRDLFATDDPQGDFAMWCSLVFRSSRRPEFKVYLNPEVKGVERSPALVSEALHRLGLGASYRALLDHGVRPGELGRGDRLTFFAVDLHDGPQARVKLYLTHHEAEVWDVTRAASVVDGVDVAEIEEFCVVAGGGTRRFDGRPLVGSYTFTEGADRPVGYSIHVPIRSYVTDDQEARDRVAALLVRYGFDTDGLDRAIAAVTPRPLRDGVGLIAHVSLRLGAPRPGVTVYLSAEAYRVSPPRPRRMPAGRDVSPAPVGRTRP
Take B4: in data set [2], the Michaelis constant (Km) entry was “(38.2 ± 0.1) × 10^−2 mM”, the turnover number (kcat) worked out at 0.00108 ± 3.33e-05 s⁻¹ and the kcat/Km amounted to 2.83 M⁻¹ s⁻¹.

B5: 6DMATSmo (Micromonospora olivasterospora; H329Y) (protein)
chain: MAGLSVSDHLDGQLARLCEVAGADPVEPRNLLAGLLGPVGPRPLYEPPAWPSGVSDDHTPVEFSIAFNEAEPPTLRILGETLGSPPGPLANLSATRGFLDAQARRAGLSTSRLDSVRDLFATDDPQGDFAMWCSLVFRSSRRPEFKVYLNPEVKGVERSPALVSEALHRLGLGASYRALLDHGVRPGELGRGDRLTFFAVDLHDGPQARVKLYLTHHEAEVWDVTRAASVVDGVDVAEIEEFCVVAGGGTRRFDGRPLVGSYTFTEGADRPVGYSIYVPIRSYVTDDQEARDRVAALLVRYGFDTDGLDRAIAAVTPRPLRDGVGLIAYVSLRLGAPRPGVTVYLSAEAYRVSPPRPRRMPAGRDVSPAPVGRTRP
Take B5: in data set [2], the Km result is recorded as “(26.7 ± 1.6) × 10^−2 mM”, the kcat came to 0.000783 ± 1.17e-05 s⁻¹ and the kcat/Km came to 2.93 M⁻¹ s⁻¹.
